Laboratory results from US9902783B2, “Antibodies and pharmaceutical compositions containing same useful for inhibiting activity of metalloproteins” (Yeda Research and Development Co. Ltd., priority 2007, dated 2018).
“And” between values parts separate entries of the source, which are not always exact repeats. Equal values may be shown once. “Also recorded” adds a separate entry of the source.

T1: Alcohol Dehydrogenase (TbADH) (Thermoanaerobacter brockii, UniProt P14941)
T1 sequence (P14941 1-352): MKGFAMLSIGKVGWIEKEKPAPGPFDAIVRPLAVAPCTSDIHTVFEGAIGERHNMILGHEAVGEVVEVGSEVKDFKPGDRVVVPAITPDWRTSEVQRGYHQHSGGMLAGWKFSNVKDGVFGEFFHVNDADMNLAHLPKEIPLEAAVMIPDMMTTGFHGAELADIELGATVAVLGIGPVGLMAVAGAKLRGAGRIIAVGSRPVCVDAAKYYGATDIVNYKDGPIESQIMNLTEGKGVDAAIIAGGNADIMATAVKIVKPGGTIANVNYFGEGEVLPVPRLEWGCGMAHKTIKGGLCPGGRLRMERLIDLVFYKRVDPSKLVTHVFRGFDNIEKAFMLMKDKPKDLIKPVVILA

T2: brockii alcohol dehydrogenase (TbADH) (Thermoanaerobacter brockii, UniProt P14941)
T2 sequence (P14941 1-352): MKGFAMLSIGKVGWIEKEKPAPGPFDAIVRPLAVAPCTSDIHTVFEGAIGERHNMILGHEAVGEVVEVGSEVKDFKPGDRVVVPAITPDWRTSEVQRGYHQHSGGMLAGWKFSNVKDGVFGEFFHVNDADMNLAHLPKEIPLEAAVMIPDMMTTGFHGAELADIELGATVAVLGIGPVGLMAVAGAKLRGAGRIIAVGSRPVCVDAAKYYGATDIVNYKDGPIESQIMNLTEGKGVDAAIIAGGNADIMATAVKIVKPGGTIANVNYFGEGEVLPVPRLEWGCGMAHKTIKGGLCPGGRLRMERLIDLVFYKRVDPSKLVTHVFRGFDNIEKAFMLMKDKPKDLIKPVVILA


Legend:
MMP-2 = assay: kinetic assay with fluorogenic peptide substrate, MMP-2; assay type: biochemical, human; details: for inhibition of proteolytic activity of MMP-2: continuous fluorometric assay
[1] = system: cell surface gelatinolytic activity of HT1080 cells; assay: in situ zymography with DQ-gelatin; assay type: cell-based, human
Description: To localize net gelatinolytic activity of MMPs by in situ zymography, fluorescein isothiocyanate-labeled DQ gelatin that is intramolecularly quenched (Molecular Probes) was used as a substrate for degradation by gelatinases. Proteolysis by gelatinases yields cleaved fluorescein isothiocyanate-gelatin peptides and the localization of this fluorescence indicates the sites of net gelatinolytic activity. Briefly, Human fibrosarcoma HT1080 cells (which produce MMP-2, MMP-9 and MT1-MMP) were plated on 12-mm coverslips. […] Untreated cells served as negative control for this experiment. Cells were washed with PBS and then incubated with zymography reaction buffer (0.05 M Tris-HCl, 0.15 M NaCl, 5 mM CaCl2, and 0.2 mM NaN3, pH 7.6, the high concentration of azide prevented the gelatin from being phagocytosed and thus allowing cell surface gelatinolytic activity to occur) containing 60 ug/ml DQ gelatin at 37° C. overnight. […] At the end of the incubation period, without fixation or further washes, gelatinolytic activity of the MMPs was localized and photographed by fluorescence microscopy and images were acquired by Spot digital camera.
To confirm the inhibitory activity of anti CoTCPP mAb at cellular level, the effect of the antibody was examined on gelatinolytic activity of human fibrosarcoma HT1080 cells that constitutively secrete MMP-2 and 9 by in situ zymography. To localize gelatinolytic activity of MMPs by in situ zymography, fluorescein isothiocyanate-labeled gelatin that is intramolecularly quenched (DQ-gelatin) was used as substrate. Proteolysis by gelatinases yields cleaved fluorescein isothiocyanate-gelatin peptides and the localization of this fluorescence indicates the sites of net gelatinolytic activity.

[2] = competitive ELISA, affinity of mAbs toward their immunizing hapten; details: concentration of soluble hapten for 50% binding
Description: Supernatants of the growing hybridomas were screened for antibodies reactive with ZnTCPP, CoTCPP or Imisdp using direct ELISA in which respective hapten-BSA (3 μg/ml in PBS) was coated to Nunc maxisorp plates. The coating was performed at 4° C. overnight and incubation with antibodies at 20° C. for 1 h. HRP-conjugated anti-mouse mAb (Sigma) was used as the secondary antibody and 2,2′-azino-bis (3-ethylbenzthiazoline-6-sulphonic acid, ABTS, Sigma) was used as substrate. PBS containing 0.005% v/v Tween 20 (PBST) was used as washing reagent. The dilution buffer was PBS. A602 was recorded by microplate reader in […]luor Plus spectrometer (Tecan, Austria). As control supernatants were incubated with BSA coated plates in the same manner Absorbance values above 0.5 millioptical density were considered as positive.
Different dilutions of hybridoma supernatant were incubated with hapten-BSA coated plates following the steps described earlier. Titration curve was plotted and the titer dilution was determined at 50% of binding. Supernatants diluted to the titer concentration were preincubated with soluble ZnTCPP, CoTCPP or Imisdp compounds for 30 minutes and then transferred to hapten-coated microtiter plates following the steps described previously. The estimated dissociation constant was the concentration of soluble hapten required to attain 50% binding.

Carbonic Anhydrase (CA) [3] = assay: immuno affinity binding experiment, Carbonic Anhydrase
Excerpt: (§1) The selectivity of anti CoTCPP and anti Imisdp was further challenged, by testing their cross reactivity with non related zinc dependent enzymes—Carbonic Anhydrase (CA) and brockii alcohol dehydrogenase (TbADH). Similar to active MMPs CA contains a zinc ion that is tetrahedraly coordinated to three histidine residues and a water molecule, TbADH contains a catalytic zinc ion that is tetraheadrally coordinated to four different amino acid residues, histidine, cysteine, aspartate and glutamate. […] Anti CoTCPP mAb was also tested for its cross reactivity with related physiological porphyrins such as the Heme group within Myoglobin and Hemoglobin and vitamin.

TACE (ADAM-17) = TACE (ADAM-17) (Homo sapiens, UniProt P78536); assay: kinetic assay with fluorogenic peptide QF-45, TACE; assay type: biochemical; details: for inhibitory effect toward TACE: in-vitro fluorescence enzymatic activity assay
MT1-MMP (MMP-14) = MT1-MMP (MMP-14) (Homo sapiens, UniProt P50281); assay: kinetic assay with fluorogenic peptide substrate, MT1-MMP; assay type: biochemical; details: for Ki: fit to competitive inhibition, fluorogenic peptide substrate
[4] = biological target: T1, Alcohol Dehydrogenase (TbADH); assay: functional inhibition experiment, alcohol dehydrogenase; assay type: biochemical, thermophilic bacterium; details: for inhibition of TbADH: in vitro functional inhibition
Excerpt: as §1
(§2) 6C6 was also tested for cross reactivity with different zinc dependent metalloproteases, Carbonic Anhydrase and Alcohol Dehydrogenase. Analogous to MMPs, Carbonic Anhydrase (CA) has a catalytic zinc ion tetrahedraly coordinated to three histidine ligands and a water molecule. Consequently, several potent small molecule MMP inhibitors (of the sulfonylated amino acid hydroxamate type) also act as efficient CA inhibitors and vice versa. Some N-hydroxysulfonamides investigated previously as CA inhibitors also show inhibitory properties against MMPs [Scozzafava, A. and C. T. Supuran, J Med Chem, 2000. 43(20): p. 3677-87]. The active site of Alcohol Dehydrogenase from thermophilic bacterium (TbADH) includes a different zinc-protein moiety in which zinc is bound to histidine, cysteine, aspartate and glutamate located inside a crevice.

MMP-9 = assay: kinetic assay with fluorogenic peptide substrate, MMP-9; assay type: biochemical, human; details: for mode of inhibition of MMP-9: Lineweaver-Burk plot; for IC50: Table 4; for inhibition of proteolytic activity of MMP-9: continuous fluorometric assay
[5] = biological target: T2, brockii alcohol dehydrogenase (TbADH); assay: immuno affinity binding experiment, alcohol dehydrogenase; parameters: species or system thermophilic bacterium
Excerpt: as §1

Carbonic Anhydrase (CA) [6] = assay: functional inhibition experiment, Carbonic Anhydrase; assay type: biochemical; details: for inhibition of Carbonic Anhydrase: in vitro functional inhibition
Excerpt: as §1, §2

Sequence of TACE (ADAM-17) (P78536 215-824, species assumed): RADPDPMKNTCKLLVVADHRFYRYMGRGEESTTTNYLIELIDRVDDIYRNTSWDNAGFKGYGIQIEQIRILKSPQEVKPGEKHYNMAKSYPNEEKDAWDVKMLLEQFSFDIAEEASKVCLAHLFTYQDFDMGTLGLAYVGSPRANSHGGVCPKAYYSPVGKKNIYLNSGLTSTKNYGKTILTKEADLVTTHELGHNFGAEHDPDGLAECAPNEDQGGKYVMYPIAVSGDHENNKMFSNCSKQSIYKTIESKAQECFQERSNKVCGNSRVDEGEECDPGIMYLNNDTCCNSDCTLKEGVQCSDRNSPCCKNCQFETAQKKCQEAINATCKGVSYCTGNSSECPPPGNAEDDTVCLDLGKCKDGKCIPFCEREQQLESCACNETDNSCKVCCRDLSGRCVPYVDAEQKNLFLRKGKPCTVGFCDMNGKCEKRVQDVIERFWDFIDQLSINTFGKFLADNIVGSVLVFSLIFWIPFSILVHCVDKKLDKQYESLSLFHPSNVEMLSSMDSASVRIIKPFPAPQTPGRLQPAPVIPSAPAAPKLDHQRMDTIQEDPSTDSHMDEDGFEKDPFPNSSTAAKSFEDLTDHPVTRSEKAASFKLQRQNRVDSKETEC
Sequence of MMP-9 (P14780 107-444 limits assumed): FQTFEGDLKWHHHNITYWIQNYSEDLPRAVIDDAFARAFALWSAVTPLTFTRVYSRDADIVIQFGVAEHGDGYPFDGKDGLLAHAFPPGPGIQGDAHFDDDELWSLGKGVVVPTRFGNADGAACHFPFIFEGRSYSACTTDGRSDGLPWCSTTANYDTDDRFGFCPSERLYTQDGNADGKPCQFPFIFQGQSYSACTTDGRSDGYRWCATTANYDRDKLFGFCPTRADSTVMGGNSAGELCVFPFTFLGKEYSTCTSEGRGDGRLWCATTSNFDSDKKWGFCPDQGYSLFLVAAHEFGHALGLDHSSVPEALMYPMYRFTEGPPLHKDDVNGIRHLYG

Row | Molecule | inhibition of proteolytic activity of MMP-2 (MMP-2) | Kd [2] | binding to Carbonic Anhydrase (Carbonic Anhydrase (CA) [3]) | inhibitory effect toward TACE (TACE (ADAM-17)) | inhibition of TbADH [4] | mode of inhibition of MMP-9 (MMP-9) | IC50 (MMP-9) | inhibition of proteolytic activity of MMP-9 (MMP-9) | binding to TbADH [5] | inhibition of Carbonic Anhydrase (Carbonic Anhydrase (CA) [6]) | other results
1 | 13E11: monoclonal antibody, IgG2b, raised against the hapten CoTCPP (antibody, V domains shown, 13E11 mAb heavy chain; 13E11 mAb light chain, monoclonal antibody, IgG2b, raised against the hapten CoTCPP) VH: EGGGLVQPGGSRKLSCAASGFTFTSFGMHWVRQAPEKGLEWVAYISSGNEIIYYADTVKGRFTISRDNPKNTLFLQMTSLRSEDTAMYYCARNYYRYGFYVMDYWGQG VL: EIVVTQSPAILSASPGEKVTMTCRASSSVSYMHWYQQKPGSSPKPWIYATSNELASGVPARFSGSGSGTSYSLTISRVEAEDAATYYCQQWISNPLTFGAG | inhibited | 0.09 µM | no binding | no inhibitory effect | no binding or inhibition | competitive inhibitor | 15 ± 0.8 µM | inhibited | no binding | no binding or inhibition | cell surface gelatinase activity ([1]; 1 μM mAb, listed as anti CoTCPP mAb): reduced; also recorded: significantly inhibited; inhibitory effect toward MT1-MMP (MT1-MMP (MMP-14); in-vitro fluorescence enzymatic activity assay): no inhibitory effect
2 | 6C6: monoclonal antibody, IgG2a, raised against the hapten Imisdp; MMP-2 and MMP-9 inhibitory; SEQ ID NO: 1 (protein, 6c6 mAb light chain) CMETTQTPLSLPVSLGDQASISCRSSQSIVHSNGNTFLEWYLQKPGQSPKLLIYKVSNCRFSGVPDRFSGSGSGTDFTLKISRVEAEDLGVYYCFQASHVPPTFGGG | inhibited | 0.09 µM | no binding | did not display inhibitory effect | no binding or inhibition | competitive inhibition profile | 4.5 ± 0.2 µM | inhibited | no binding | no binding or inhibition | IC50 (MMP-2; Table 4): 3 ± 0.2 µM; cell surface gelatinolytic activity ([1]; 5 μM mAb): significantly decreased; also recorded: significantly inhibited; IC50 (TACE (ADAM-17); Table 4): > 30 µM; inhibition of TACE (TACE (ADAM-17); mAb concentrations of up to 30 μM): neither MMP-7 nor TACE were inhibited to any measurable extent; IC50 (MT1-MMP (MMP-14); Table 4): 14.4 ± 0.7 µM; Ki (MT1-MMP (MMP-14)): 14.4 µM and 15 µM; Ki (MT1-MMP (MMP-14); listed as anti Imisdp mAb): 10 µM; inhibitory effect toward TbADH ([4]; mAb concentrations up to 30 μM): no inhibitory effect; inhibitory effect toward Carbonic Anhydrase (Carbonic Anhydrase (CA) [6]; mAb concentrations up to 30 μM): no inhibitory effect
